Paper PMC12064060 (mAbs, 2025)

Target: Nb4 × 3 (trimeric Nb4, three VHH domains in tandem) (dromedary)
Test: ELISA

B1: SARS-CoV-1 RBD-Fc (Fc fusion)
chain: not shown
binding result: binds
